To fix the notation:
B1: DVD325 (bispecific antibody)
VH: QVQLQESGPGLVKPSQTLSLTCTVSGYSISSDFAWNWIRQPPGKGLEWMGYISYSGNTRYQPSLKSRITISRDTSKNQFFLKLNSVTAADTATYYCVTAGRGFPYWGQGTLVTVSSASTKGPEVQLVQSGGGLVKPGGSLRLSCAASGFTFSSYAMHWVRQAPGKGLEWVAVISYDGSNKYYADSVKGRFTISRDNSKNTLYLQMNSLRAEDTAVYYCARFSGWPNNYYYYGMDVWGQGTTVTVSS
VL: DIQMTQSPSSMSVSVGDRVTITCHSSQDINSNIGWLQQKPGKSFKGLIYHGTNLDDGVPSRFSGSGSGTDYTLTISSLQPEDFATYYCVQYAQFPWTFGGGTKLEIKRTVAAPDVVMTQSPLSLPVTPGEPASISCRSSQSLLHSNGFNYVDWYLQKPGQSPHLLIYFGSYRASGVPDRFSGSGSGTDFTLKISRVEAEDVGVYYCMQALQTPPWTFGQGTKVEIRR
notes: DVD-Ig; HC S, LC S; variable parts only
B2: DVD767 (bispecific antibody)
VH: QVQLQESGPGLVKPSQTLSLTCTVSGYSISSDFAWNWIRQPPGKGLEWMGYISYSGNTRYQPSLKSRITISRDTSKNQFFLKLNSVTAADTATYYCVTAGRGFPYWGQGTLVTVSSASTKGPSVFPLAPEVQLVQSGGGLVKPGGSLRLSCAASGFTFSSYAMHWVRQAPGKGLEWVAVISYDGSNKYYADSVKGRFTISRDNSKNTLYLQMNSLRAEDTAVYYCARFSGWPNNYYYYGMDVWGQGTTVTVSS
VL: DIQMTQSPSSMSVSVGDRVTITCHSSQDINSNIGWLQQKPGKSFKGLIYHGTNLDDGVPSRFSGSGSGTDYTLTISSLQPEDFATYYCVQYAQFPWTFGGGTKLEIKRTVAAPSVFIFPPDVVMTQSPLSLPVTPGEPASISCRSSQSLLHSNGFNYVDWYLQKPGQSPHLLIYFGSYRASGVPDRFSGSGSGTDFTLKISRVEAEDVGVYYCMQALQTPPWTFGQGTKVEIRR
notes: DVD-Ig; HC L, LC L; variable parts only
B3: DVD827 (bispecific antibody)
VH: B1 VH
VL: B2 VL
notes: DVD-Ig; HC S, LC L; variable parts only
B4: DVD797 (bispecific antibody)
VH: B2 VH
VL: B1 VL
notes: DVD-Ig; HC L, LC S; variable parts only
B5: DVD768 (bispecific antibody)
VH: EVQLVQSGGGLVKPGGSLRLSCAASGFTFSSYAMHWVRQAPGKGLEWVAVISYDGSNKYYADSVKGRFTISRDNSKNTLYLQMNSLRAEDTAVYYCARFSGWPNNYYYYGMDVWGQGTTVTVSSASTKGPSVFPLAPQVQLQESGPGLVKPSQTLSLTCTVSGYSISSDFAWNWIRQPPGKGLEWMGYISYSGNTRYQPSLKSRITISRDTSKNQFFLKLNSVTAADTATYYCVTAGRGFPYWGQGTLVTVSS
VL: DVVMTQSPLSLPVTPGEPASISCRSSQSLLHSNGFNYVDWYLQKPGQSPHLLIYFGSYRASGVPDRFSGSGSGTDFTLKISRVEAEDVGVYYCMQALQTPPWTFGQGTKVEIRRTVAAPSVFIFPPDIQMTQSPSSMSVSVGDRVTITCHSSQDINSNIGWLQQKPGKSFKGLIYHGTNLDDGVPSRFSGSGSGTDYTLTISSLQPEDFATYYCVQYAQFPWTFGGGTKLEIKR
notes: as for B2
B6: DVD798 (bispecific antibody)
VH: B5 VH
VL: DVVMTQSPLSLPVTPGEPASISCRSSQSLLHSNGFNYVDWYLQKPGQSPHLLIYFGSYRASGVPDRFSGSGSGTDFTLKISRVEAEDVGVYYCMQALQTPPWTFGQGTKVEIRRTVAAPDIQMTQSPSSMSVSVGDRVTITCHSSQDINSNIGWLQQKPGKSFKGLIYHGTNLDDGVPSRFSGSGSGTDYTLTISSLQPEDFATYYCVQYAQFPWTFGGGTKLEIKR
notes: as for B4
B7: DVD338 (bispecific antibody)
VH: EVQLVESGGGLVQPGGSLRLSCAASGYTFTNYGMNWVRQAPGKGLEWVGWINTYTGEPTYAADFKRRFTFSLDTSKSTAYLQMNSLRAEDTAVYYCAKYPHYYGSSHWYFDVWGQGTLVTVSSASTKGPQVQLQESGPGLVKPSQTLSLTCTVSGYSISSDFAWNWIRQPPGKGLEWMGYISYSGNTRYQPSLKSRITISRDTSKNQFFLKLNSVTAADTATYYCVTAGRGFPYWGQGTLVTVSS
VL: DIQMTQSPSSLSASVGDRVTITCSASQDISNYLNWYQQKPGKAPKVLIYFTSSLHSGVPSRFSGSGSGTDFTLTISSLQPEDFATYYCQQYSTVPWTFGQGTKVEIKRTVAAPDIQMTQSPSSMSVSVGDRVTITCHSSQDINSNIGWLQQKPGKSFKGLIYHGTNLDDGVPSRFSGSGSGTDYTLTISSLQPEDFATYYCVQYAQFPWTFGGGTKLEIKR
notes: as for B1
B8: DVD326 (bispecific antibody)
VH: EVQLVQSGGGLVKPGGSLRLSCAASGFTFSSYAMHWVRQAPGKGLEWVAVISYDGSNKYYADSVKGRFTISRDNSKNTLYLQMNSLRAEDTAVYYCARFSGWPNNYYYYGMDVWGQGTTVTVSSASTKGPQVQLQESGPGLVKPSQTLSLTCTVSGYSISSDFAWNWIRQPPGKGLEWMGYISYSGNTRYQPSLKSRITISRDTSKNQFFLKLNSVTAADTATYYCVTAGRGFPYWGQGTLVTVSS
VL: B6 VL
notes: as for B1
B9: DVD758 (bispecific antibody)
VH: EVQLVESGGGLVQPGGSLRLSCAASGFTISDYWIHWVRQAPGKGLEWVAGITPAGGYTYYADSVKGRFTISADTSKNTAYLQMNSLRAEDTAVYYCARFVFFLPYAMDYWGQGTLVTVSSASTKGPQVQLQESGPGLVKPSQTLSLTCTVSGYSISSDFAWNWIRQPPGKGLEWMGYISYSGNTRYQPSLKSRITISRDTSKNQFFLKLNSVTAADTATYYCVTAGRGFPYWGQGTLVTVSS
VL: DIQMTQSPSSLSASVGDRVTITCRASQDVSTAVAWYQQKPGKAPKLLIYSASFLYSGVPSRFSGSGSGTDFTLTISSLQPEDFATYYCQQSYTTPPTFGQGTKVEIKRTVAAPDIQMTQSPSSMSVSVGDRVTITCHSSQDINSNIGWLQQKPGKSFKGLIYHGTNLDDGVPSRFSGSGSGTDYTLTISSLQPEDFATYYCVQYAQFPWTFGGGTKLEIKR
notes: as for B1
B10: DVD852 (bispecific antibody)
VH: EVQLVESGGGLVQPGGSLRLSCAASGFTINASWIHWVRQAPGKGLEWVGAIYPYSGYTNYADSVKGRFTISADTSKNTAYLQMNSLRAEDTAVYYCARWGHSTSPWAMDYWGQGTLVTVSSASTKGPQVQLQESGPGLVKPSQTLSLTCTVSGYSISSDFAWNWIRQPPGKGLEWMGYISYSGNTRYQPSLKSRITISRDTSKNQFFLKLNSVTAADTATYYCVTAGRGFPYWGQGTLVTVSS
VL: DIQMTQSPSSLSASVGDRVTITCRASQVIRRSLAWYQQKPGKAPKLLIYAASNLASGVPSRFSGSGSGTDFTLTISSLQPEDFATYYCQQSNTSPLTFGQGTKVEIKRTVAAPSVFIFPPDIQMTQSPSSMSVSVGDRVTITCHSSQDINSNIGWLQQKPGKSFKGLIYHGTNLDDGVPSRFSGSGSGTDYTLTISSLQPEDFATYYCVQYAQFPWTFGGGTKLEIKR
notes: as for B3
B11: DVD760 (bispecific antibody)
VH: B10 VH
VL: DIQMTQSPSSLSASVGDRVTITCRASQVIRRSLAWYQQKPGKAPKLLIYAASNLASGVPSRFSGSGSGTDFTLTISSLQPEDFATYYCQQSNTSPLTFGQGTKVEIKRTVAAPDIQMTQSPSSMSVSVGDRVTITCHSSQDINSNIGWLQQKPGKSFKGLIYHGTNLDDGVPSRFSGSGSGTDYTLTISSLQPEDFATYYCVQYAQFPWTFGGGTKLEIKR
notes: as for B1

Experimental findings from patent US20110263827A1 (AbbVie / Abbott, published 2011) are described below.

In one assay the target is T1, RON (UniProt Q04912 25-571, biotinylated). Description: direct bind ELISA, C-term VD.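 Also: ELISA with antibody or DVD-Ig preparations applied to target antigen-coated plates for 1 h at room temperature, TMB colour development, absorbance read at 450 nm.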
Take B1: the EC50 is 25 nM.
The same measure, in the same setting: under B2 stands 0.64 nM; under B3, 6.57 nM; under B4, 1.16 nM.

The target of a further assay is T2, EGFR (UniProt P00533 25-645, limits assumed, biotinylated).
T2 construct: ELISA antigen; construct not described
Description: direct bind ELISA, C-term VD.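 Also: ELISA with antibody or DVD-Ig preparations applied to target antigen-coated plates for 1 h at room temperature, TMB colour development, absorbance read at 450 nm.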
The molecule B5 had an EC50 of 20.7 nM.
On to B6, for which the EC50 is 17.9 nM.
Same read-out and setting: for B7 the value was 206 nM.
Same read-out and setting: for B8 the value was 29.9 nM; for B9, 562 nM; for B10, 68.1 nM.
Same read-out and setting: for B11 the value was 328 nM.

Another assay deals with T1, RON. Nature of the assay: direct bind ELISA, N-term VD.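 Also: antibody or DVD-Ig preparations bound to immobilized target antigen on ELISA plates, 1 h at room temperature, TMB detection read as absorbance at 450 nm.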
With B5, the midpoint of the response, the EC50, lay at 0.18 nM. In other words, the sub-nanomolar range.
On the same count and under the same terms, under B6 stands 0.18 nM.
On the same count and under the same terms, under B8 stands 0.18 nM.

A further assay addresses T2, EGFR. Description: direct bind ELISA, N-term VD.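 Also: antibody or DVD-Ig preparations bound to immobilized target antigen on ELISA plates, 1 h at room temperature, TMB detection read as absorbance at 450 nm.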
B1 yielded an EC50 of 5.96 nM.
On to B2, for which the EC50 turned out to be 5.97 nM. The EC50 values of the last two molecules are within 1.5-fold of each other.
Molecule B3 returned a half-maximal effective concentration (EC50) of 6.28 nM.
For B4, the concentration for a half-maximal effect (EC50) worked out at 4.56 nM.

The target of the next assay is T3, VEGF (UniProt P15692-4 27-191, limits assumed, biotinylated).
T3 construct: ELISA antigen
Nature of the assay: direct bind ELISA, N-term VD.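 Also: antibody or DVD-Ig preparations bound to immobilized target antigen on ELISA plates, 1 h at room temperature, TMB detection read as absorbance at 450 nm.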
Take B7: a half-maximal response (EC50) required 0.24 nM.
In the case of B9, the concentration giving a half-maximal response (EC50) stood at 5.37 nM. This EC50 is about 22-fold higher than that of the molecule before.
On the same count and under the same terms, for B10 the value was 0.78 nM; for B11, 0.77 nM.
